# In the nanobody polyreactivity screen of Harvey et al. (2022):
# Experiment: yeast display, Sf9 membrane polyspecificity reagent, FACS + sequencing; frameworks hold sequencing errors
# Procedure, shortened: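 After 36–48 hours of galactose induction, yeast (Saccharomyces cerevisiae BJ5465) displaying a synthetic nanobody library were stained at 4 °C for 1 hour with 10% biotinylated, detergent-solubilized Sf9 membrane reagent. Streptavidin microbeads enriched the stained cells before FACS sorting into low and high (top ~1%) gates on anti-HA and streptavidin fluorescence. Each clone's polyreactivity label reflects its gate of origin.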
row,Sequence,polyreactivity (PSR sort gate)
1,QVQLVESGGGLVQAGGSLRLSCAASGSTFWFNDMGWYRQAPGKEREFVAAISSIGGSTYYADSVKGRFTISRDNAKNTVYLQMNSLKPEDTAVYNCAVEVVRVYRYDYWGQGTQVTVSS,low polyreactivity
2,QVQLVESGGGLVQAGGSLRISCAASARTLKRNAMGWYRQAPGKERELVAAISFRVTNTYYADSVKGRFTISRDNAKNTVYLQMYSLKPEDTAVYYCAVPDSRFYSPRRVSPHDYWGQGTQVTVSS,high polyreactivity
3,QVQLVESGGGIVQAGGSLRLICDASGLIFTLYAMGWYRQAPGKETELVAAIDDGGRTYYADSVKGRFTISRDNAKNTVYLQMNSMIPEDTAVYYGAAVWLAVYSVWTDHHYDYWGQGTQVTVSS,low polyreactivity
4,QVQLVESGGGLVQAGGSLRLSCAASGNIFKGHVMGSYRKAPGKERELVAAISRSGGYTYYAVSVKGRFTISRDNAKNTVYLQMNSLKPADTAVYYCAAGRRLVRVVGGDYYGRYVYWGQGTQVTLSS,high polyreactivity
5,QVQLVESGGGLVQAGGSLSLSWAASGSTFFNNAMGWYRQAPGKERELVAGISYGCGRTYYADSVKGRFTISRDNAKNTVFLQMNSLKPEDTAVYYCNTVTSPAPYYSYDRYYWGQGTQVTVSS,high polyreactivity
6,QVQLVESGGGLVQAGGSLRLSCAASGRIFLKYTMGWYRQAPGKERELVAAISRGGSTYYADSVKGRFTISRDNAKNTVYLQMNSLKPEDTAVYYCAARRSRPTYYSTGVNYWGQGTQVTVSS,high polyreactivity
7,QVQLVESGGGLVQAGGSLRLSCAASGFIFTYNAMGWYIQAPGKEREFVASISRSGGRTYYADSVKGRFTISRDNAKNTVYLQMNSLKPEDTAVYYCAARNAYVYGMDYWGQGTQVTVSS,low polyreactivity
8,QVQLVESGGGLVQAGGSLRLSCAASGSTFENNVMGWYRQAPGKERELVATITWGDGSTSYADSVKGRFTISRDNAKNTVYLQMNSLKPEDTAVYYCAADDRIGYGKNKDHDYWGQGTQVTVSS,low polyreactivity
9,QVQLVDTGGGLVQAGGSLRLSCAASGSTFYFNAMGWYRLAPGKERELVAAISYSGGSTYYADSVKGRFTISRDNAKNTVYFQMNSLKPEDTAVYYCNARGLKSYYPGYWFRGDDWGQGTQVTVSS,high polyreactivity
10,QVQLVESGGGLVQAGGSLRLSCAASGSTFDYNTMGWYRQAPGKERELVAAISESGGSTYYADSVKGRFTISRDNAKNTVYLQMNSLKPEDTAVSYCATDDFGGYFGEYDYWGQGTQVTVSS,low polyreactivity
11,QVQLVESGGGLVQAGGSLRLSCVASGFTFIRYAMGWYRQAPGKERELVASITRGGSTYYADSVKGRFTISRDNAKYTVYLQMNSLKPEDTAVYYCATTSYYGYDYWGQGTQVTVSS,high polyreactivity
12,QVQLVESGGGLVQAGGSLRLSCAASGSTFRYYAMGWYRQAPGKERELVAAITYRATSTYYADSVEGRFTISRDNAKNTVYLQMNSLKPEYTAVYYCAAYSTYSRSDYWGQGTQVTVSS,high polyreactivity
13,QVQLVESGGGLVQAGGSLRLSCAASGRIFRGYAMGWYRQAPGKERELVAAISGGGGSTYYADSVKGRFTISRDNAKNTVYLQMNSLKPEDTAVYYCNALRIRGSKVFEGDYWGQGTQVTVSS,high polyreactivity
14,QVQLVESCGCLVQAGGSLRLSCAASGRTFFHYDMGWYRQAPGKDRELEAGISSGGRTKYADSVKGRFTISRDNAKNTVYLQMNSLNPEDTAAYYCAASYIVWLTRGAPRKRFDYWGQGSQVTVSS,high polyreactivity
15,QVQLVESGGGLVQAGGSLRLSCAASGSIFYYNAMGWYRQAPGTERELVAAITSSGGSTYYADSVKGRFTISRDNAKNTVYLQMNSLKPEDTAVYYCNADQDAYYLVYIATYDYWGQGTQVTVSS,low polyreactivity
16,QVQLVESGGGLVQAGGSLRLSCDASGTLSPYAMGWYRQAPGKERELVAVITSNTGRTYADSVKGRFTISRYNSKNTVYLQKNTLNPQDTAFFYCYWGQGTQVTVTS,low polyreactivity
17,QVQLVESGGGLVQAGCSILLSCAASGRIFDNYAMGWSRQAPGKERELVAASRYSDDATDYADSVKGRFTISRDNAKNTVYLQMNSLIPEDPAVYYCAADVKRYGWEYGYWGQGTQVTVSS,low polyreactivity
18,QVQLVESGGGLVQAGGSLRLSCAASGSTFVGYTMGWYIQAPGKERELVAAISRGGGSTYYADSVKGRFTISRDNAKNTVYLQMNSLKPEDTAVYYCAATGFYARLSSIYYYWGQGTQVTVSS,high polyreactivity
19,QVQLVESGGGLVQAGGSLRLSCAASGFTFRRYAMGWYRQAPGKERELVAAITWSGGSTYYADSVKGRFTISRDNAKNTVYLQMNSLKPEDTAVYYCNKAYSPLYFSYNYWGQGTQVTVSS,high polyreactivity
20,QVQLEESGGGLVQAGGRLRLSCAASGSILTAYAMGWYRQAPGKERELVAASNFSGDNTYYADSVKGRFTISRDNAKNTVYLQMNSLKPQDTALYYCNADGRYAYVWYDYWGQGTQVTVSS,low polyreactivity
21,QVQLVESGGGLVQAGGSLRLSCAASGRIFGWYAMGWYRQAPGKERELVAAINWDGTSTDYADSVKGRFTISRDNAKNTVYLQMNSLKPEDTAVYYCAAEGHTAFLVYRVSPLQYDYWGQGTQVTVSS,low polyreactivity

row,Sequence,polyreactivity (PSR sort gate)
1,QVQLVESGGGLVQAGGSLRLSCAASGITFGGYAMGWYRKAPGKERELVAAITSSGGITYYADSVKGRFTISRDNAKKTVYLLLNSLKPEDTAVYYCAKVPLEIVTIRDDEDYWGQGTQVTVSS,low polyreactivity
2,QVQLVESGGGLVQAGGSLRLICAASGITFARNTRGWYRQAPGKERELVAAIDSGGNTYADSVKGRFTISRDNAKNTVYLQMNSLKPEDTAVYYCAVDGGEFSSYGYWGQGTQVTVSS,low polyreactivity
3,QVQLVESGGGLVQAGGSLRLSCAASGFTFPYNAMGWYRQAPGKERELVAAISSTGGITYYADSVKGRFTISRDNAKNTVYLQLNSLKPEDTAVYYCGWYDYWGLGTQVTVSS,low polyreactivity
4,QVQLVESGGGLVQAGGSLRLSCPASGRIFVRNAMGWYRQAPGKERELVAAITTSGGRTYYADSVKGRFTISRDLAKNPVYLQMNSLKPEDTAVYYCAAETRYRNFPYYYWGQCTQVTVSS,high polyreactivity
5,QVHLVDSRGVLVQAGGSLRLSCAASGRTFFHYAMGWYRQAPGKERELVAAITYRGTSTYYADSVKARFTISRDYAKNTVYLQMNSLKPEATAVYYCNAYTTRGGWSYRGDSWGQGTQVTVSS,high polyreactivity
6,QVQLVESGGGLVQAGGSLRLSCAASGIIFPVYTKGWYRQAPGKERELVAAISTSGGRTYYADSVKGRFTISRDNAKNTVYLQMNSLKPEYTAVYYCAAKRYTRKAGYYYWGQGTQVTVSS,high polyreactivity
7,QVQLVESGGGLVQAGGSLRLRCAASGTTFSDNAMGWYRQAAGKERELVAAITSGGSTYYADSVKGRFTISRDNAKNTVYLQMNSLKPEDTAVYYCAADYWGQGTQVTVSS,low polyreactivity
8,QVQLVESGGGLVQAGGSLRLSCAASGSTFHRNAMGWYRQAPGKERELVAAITSGGSTNYADSVKGRFKISRDNAKNTVYLQMNSLKPEDTAVYYCAADEVWGRDLGEYWGQGTQVTVSS,low polyreactivity
9,QVQLVESGGGLVQAGGSLRLSCAASGSTFRGYVMGWYRQAPGKERELVASINWDGGSTYYADSVKGRFTISRDNAKNTVYLQMNSLKPEDTAVYYCAARRVGGGFYTWRNPAYEYWGQGTQVTVSS,high polyreactivity
10,QVQLVESGGGLVQAGGSLRLTCAASGSTLWYYAMGWYRQAPGKERELVADITSSGNTNYADSVKGRFTISRDNAKNTVYLQMNSLKPEDTAVYYCAADSANYQWYLSWQKDDYWGQGTQVTVSS,low polyreactivity
11,QVQLVESGGGLVQAGGSLRLSCAASGNTFWFYGMGWYRQAPGKERELVAAITSGGSTDYADSVKWRFTISRDNAKNTVYLQMNSLKPEDTAVYYCAAEPVAYYGSSYGYWGQGTQVTVSS,low polyreactivity
12,QVQLVESGGGLDQAGGSLRLSCAASGSTFSFYAMGWYRQAPGKERELVAAISRSGGCKFYADYVKGRFSISRDNEKNTVYLQMNRLKPEDTAVYYCAAKSAVVVGMDSWGQGTQVTVSS,high polyreactivity
13,QVQLVESGGGLDQAGGSLRLSCAASGSTFVGYAMGWYRQAPGKERELVAAISGSGTSTYYADSVKGRFTISRDNAKNTVYLQMNSLKPEDTAVYYCNADPIFVYSSYNYWGQGTQVTVSS,low polyreactivity
14,QVQLVESGGGLVQAGGSLRLSCAASGSILTAYAMGWYRQAPGKERELVAAISRGDITKYADSVKGRFTISRDNAKNTVYLQMNRLKPEDTAVYYCAARVPRYSDSTRGRADYYWGQGTQVTVSS,high polyreactivity
15,QVQLVESGGGLVQAGGSLRLSCAASGRIFTTNAMGWYRQAPGIERELVAAITYSGGTTYYADSVKGRFTISRDNAKNTVYFQMNSLKPEDTAVYYCAADVKFSPPYDYWGQGTQVTVSS,low polyreactivity
16,QVQLVESGGGLDHAGGSLRLSCAPSGRIFSVNAMGWYRQAPGKERELVAAITSGDSTNYADSVKGRFTISRDNAKNTVYLQSNSMKQEDTAVYYCNARGSQELWRRKWYHTEYDSWGQGTQVSVSS,low polyreactivity
17,QVQLVESGGALVQAGGSLSLSCAASGSIFVGNAMGWYRQAPGKERELVAAINGGGTNYADSVKGRFTFSRDNAKNTVYLQMNSLKPEDTAVYYCAAPVRSNDSAYLHRDNDYWGQGTQVTVSS,low polyreactivity
18,QVQLVESGGGLVLAGGSLRLSCAASGSISTNYAMGWYRQAPGKERELVAAISDSSGSTYYADSVKGRFTISRDNAKNIVYLQMNSLKPEDTAVYYCNADSQGGRDVNYDYEYYYWGQGTQVTVSS,low polyreactivity
19,QVHLVESGGGLVQAGGSLRLSCAASGIIFYANVMGWYRQAPGKERELVAGISRNGGRTYYADSVKGRFTFSRDNAKNTVYLQMICLKPEDTAVYYCAARGSYTSIFDYWGQGTQVTVSS,high polyreactivity
20,QVQLVESGGGLVQAGGSLRLSCAASGSIFTPYAMGWYRQAPGKERELVATISWSGGRTYYADSVKGRFTISRDNAKNTVYLQMNSLKPEDTAVYYCNADVLKYKFDYWGQGTQVTVSS,high polyreactivity
